As a reminder, the IC50 is the point on the concentration scale where inhibition reaches its midpoint. Usually EC50 stands for the concentration at which the effect is half-maximal. In general, Kd refers to the constant that tells how readily two partners part at equilibrium.

Test [1] has as its target T1, extracellular domain of mouse EphA4 recombinant protein (mouse, UniProt Q03137 20-547).
T1 construct: also called mouse EphA4 extracellular domain
Briefly: competitive ELISA, mouse EphA4 ECD coated; competitor biotinylated mouse ephrin-A1 Fc. Here is the method: The interaction of EphA4 and ephrin-A that attenuated by the IgG1s was determined via the streptavidin-biotin detection method. IC50 of the 3 IgG1s were determined.
(§1) The EphA4 proteins were coated on a 96-well plate (Costar) at 50 ng/well in PBS overnight at 4° C. For phage ELISA, phages from each round of panning (polyclonal phage ELISA) or clones randomly picked from the infected TG 1 cells (monoclonal phage ELISA) were incubated with immobilized antigen. Bound phages were detected with anti-M13-HRP polyclonal Ab (Pharmacia, Piscataway, N.J.). For the soluble Fab binding assay, HRP-conjugated mouse anti-FLAG tag Ab (Sigma-Aldrich) was used to detect Fab binding. For the IgG1 binding assay, HRP-conjugated anti-Fab Ab (Sigma-Aldrich) was used for detection. For competitive ELISA assay, extracellular domain of mouse EphA4 recombinant protein or extracellular domain of mouse EphB2 recombinant protein was pre-coated on the ELISA plate and then incubated with different IgG1s for 1 hr at room temperature. After several washes with DPBS, the EphA4 or EphB2 proteins were then incubated with different biotinylated recombinant mouse ephrin-A/ephrin-B Fc chimera proteins for 1 hr at room temperature. The interaction of EphA4/EphB2 and ephrin-A/ephrin-B was determined via the streptavidin-biotin detection method.
A general note: In an ELISA, binding on a coated surface is turned into a signal by an enzyme label.

For test [2], the target named is T2, human EphA4 fused with IgG1 Fc and Avi-tag (EphA4-Fc) (human, UniProt P54764 20-547).
T2 construct: also called human EphA4-Fc; not shown: human IgG1 Fc; Avi-tag
T2 sequence (P54764 20-547 limits assumed): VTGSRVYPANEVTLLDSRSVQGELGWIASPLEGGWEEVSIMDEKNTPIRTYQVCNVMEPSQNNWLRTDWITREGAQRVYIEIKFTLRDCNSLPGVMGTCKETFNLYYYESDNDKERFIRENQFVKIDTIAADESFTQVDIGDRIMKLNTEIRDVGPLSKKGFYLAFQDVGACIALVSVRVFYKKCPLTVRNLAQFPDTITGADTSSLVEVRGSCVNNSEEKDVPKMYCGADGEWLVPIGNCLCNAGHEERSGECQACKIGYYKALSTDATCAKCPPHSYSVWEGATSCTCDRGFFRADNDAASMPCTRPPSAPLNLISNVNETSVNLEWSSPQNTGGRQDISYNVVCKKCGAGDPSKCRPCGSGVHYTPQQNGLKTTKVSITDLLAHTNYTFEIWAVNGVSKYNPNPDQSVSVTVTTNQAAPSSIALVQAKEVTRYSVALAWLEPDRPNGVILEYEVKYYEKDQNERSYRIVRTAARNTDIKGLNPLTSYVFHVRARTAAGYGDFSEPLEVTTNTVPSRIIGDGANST
Briefly: ELISA, EphA4 coated, IgG1 detected with anti-Fab-HRP; human EphA4; IgG1 format. Here is the method:
(§2) FIG. 3. Binding of IgG1s m101, m105, and m119 to mouse and human EphA4 measured by ELISA. Serially diluted IgG1s were added to EphA4-coated wells. HRP-conjugated anti-Fab Ab was used for detection.
as §1

Test [3] concerns the target T3, GST-human EphA4 ligand binding domain (LBD) (human, UniProt P54764 29-209).
T3 construct: also called EphA4 LBD; EphA4 LBD recombinant protein; not shown: glutathione S-transferase (GST) tag
Briefly: isothermal titration calorimetry, 20 µM LBD protein and 1 µM antibody. How it is done: FIG. 5. […] Isothermal titration calorimetry (ITC) experiments were carried out by incubating 20 μM Eph LBD protein in the cell with 1 μM antibodies.
To investigate the binding property of the IgG1s m101, m105, and m119 to EphA4, GST-human EphA4 ligand binding domain (LBD) was expressed and purified. The recognition of EphA4 LBD by the 3 IgG1s m101, m105, and m119 was determined by Western blot analysis. The EphA4 LBD protein was run on SDS-PAGE and they were immunoblotted with the 3 IgG1s (FIG. 4). The kinetics of the 3 IgG1s and EphA4 LBD interaction were further analyzed by conducting isothermal titration calorimetry (ITC) experiments. The heat generated by the interaction of EphA4 LBD recombinant protein with the IgG1s was measured with a sensitive calorimeter.

Test [4] addresses T2, human EphA4 fused with IgG1 Fc and …. The experiment in a line: ELISA, EphA4 coated, Fab detected with anti-FLAG-HRP; human EphA4; Fab, not IgG1. Here is the method: FIG. 2. Binding of IgG1s E1 (m101), E2, E5 (m105), and E19 (m119) to mouse and human EphA4 measured by ELISA. Serially diluted IgG1s were added to EphA4-coated wells. HRP-conjugated anti-FLAG Ab was used for detection.
as §1

Test [5] shares this target. Briefly: ELISA, EphA4 coated, IgG1 detected with anti-Fab-HRP. Here is the method:
as §2, §1

Test [6] deals with EphA4 in cultured hippocampal neurons (rat, UniProt D3ZZK3 20-986). Briefly: cell-based or functional assay.
Test [7] has as its target T1, extracellular domain of mouse EphA4 …. Briefly: competitive ELISA: mouse EphA4 extracellular domain coated, incubated with IgG1 m105, then biotinylated mouse ephrin-B2 Fc; streptavidin-biotin detection, % of inhibition. Here is the method: (§3) Extracellular domain of mouse EphA4 recombinant protein or extracellular domain of mouse EphB2 recombinant protein was first incubated with IgG1 m105, followed by incubating with different biotinylated recombinant mouse ephrin-A/ephrin-B Fc chimeric proteins. The effect of IgG1 m105 on the interaction of EphA4/EphB2 and ephrin-A/ephrin-B was then determined via the streptavidin-biotin detection method.
as §1, with “After several washes with DPBS, the EphA4 or EphB2 proteins were then incubated with different biotinylated recombinant mouse ephrin-A/ephrin-B Fc chimera proteins for 1 hr at room temperature.” left out

Test [8] shares this target. The experiment in a line: competitive ELISA, mouse EphA4 ECD coated; competitor biotinylated ephrin-B2 Fc; ligand Ephrin-B2. How it is done: as §3
as §1, with “After several washes with DPBS, the EphA4 or EphB2 proteins were then incubated with different biotinylated recombinant mouse ephrin-A/ephrin-B Fc chimera proteins for 1 hr at room temperature.” left out

Test [9] shares this target. The experiment in a line: competitive ELISA, mouse EphA4 ECD coated; competitor biotinylated mouse ephrin-A5 Fc; ligand mEphrin-A5. How it is done: as §3
as §1, with “After several washes with DPBS, the EphA4 or EphB2 proteins were then incubated with different biotinylated recombinant mouse ephrin-A/ephrin-B Fc chimera proteins for 1 hr at room temperature.” left out

The target in test [10] is T4, extracellular domain of mouse EphB2 recombinant protein (mouse, UniProt P54763 19-543).
T4 construct: extracellular domain; also called EphB2 receptor
T4 sequence (looked up): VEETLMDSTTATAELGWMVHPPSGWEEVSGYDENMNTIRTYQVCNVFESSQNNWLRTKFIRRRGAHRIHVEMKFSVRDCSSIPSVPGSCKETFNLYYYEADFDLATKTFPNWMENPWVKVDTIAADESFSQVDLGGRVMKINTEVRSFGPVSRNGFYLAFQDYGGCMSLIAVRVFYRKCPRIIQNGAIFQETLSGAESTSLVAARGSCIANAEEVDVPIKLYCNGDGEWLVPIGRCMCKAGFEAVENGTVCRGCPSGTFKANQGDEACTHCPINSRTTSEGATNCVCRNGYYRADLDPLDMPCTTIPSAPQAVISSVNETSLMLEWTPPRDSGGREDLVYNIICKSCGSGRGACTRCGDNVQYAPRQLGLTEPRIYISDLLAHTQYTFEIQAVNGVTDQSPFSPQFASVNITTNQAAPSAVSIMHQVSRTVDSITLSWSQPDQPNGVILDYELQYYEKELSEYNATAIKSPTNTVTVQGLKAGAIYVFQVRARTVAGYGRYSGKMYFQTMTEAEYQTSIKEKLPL
Briefly: competitive ELISA: mouse EphB2 extracellular domain coated, incubated with IgG1 m105, then biotinylated mouse ephrin-B2 Fc; streptavidin-biotin detection, % of inhibition. How it is done: as §3
as §1, with “After several washes with DPBS, the EphA4 or EphB2 proteins were then incubated with different biotinylated recombinant mouse ephrin-A/ephrin-B Fc chimera proteins for 1 hr at room temperature.” left out

In test [11] the target is T1, extracellular domain of mouse EphA4 …. Briefly: competitive ELISA, mouse EphA4 ECD coated; competitor biotinylated mouse ephrin-A1 Fc; ligand mEphrin-A1. Here is the method:
as §3
as §1, with “After several washes with DPBS, the EphA4 or EphB2 proteins were then incubated with different biotinylated recombinant mouse ephrin-A/ephrin-B Fc chimera proteins for 1 hr at room temperature.” left out

T1 sequence (Q03137 20-547 limits assumed): as the sequence (P54764 20-547 limits assumed) above, with P59A, N121S, V124G, R250Q, S251N, T270S, K378R, N406S counted along it
T3 sequence (P54764 29-209): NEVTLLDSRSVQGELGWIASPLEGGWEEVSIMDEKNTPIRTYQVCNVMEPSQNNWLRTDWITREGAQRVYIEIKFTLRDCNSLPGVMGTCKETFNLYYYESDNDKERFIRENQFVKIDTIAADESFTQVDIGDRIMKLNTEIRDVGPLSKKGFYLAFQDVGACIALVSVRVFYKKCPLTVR

B1: IgG1 m101 (antibody, V domains shown)
VH: QVQLQQSGAEVKKPGSSVKVSCKASGYTFTGYYMHWVRQAPGQGLEWMGGIIPIFGTANYAQKFQGRVTITADKSTSTAYMELSSLRSEDTAVYYCATAPMVCSSTSCYLRGFDYWGQGTLVTVSS
VL: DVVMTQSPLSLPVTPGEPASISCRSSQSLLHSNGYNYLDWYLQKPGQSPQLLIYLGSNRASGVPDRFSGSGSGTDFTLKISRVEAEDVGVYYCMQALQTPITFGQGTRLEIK
notes: Fully human IgG1 made from Fab E1 by re-cloning into the pDR12 vector; also called E1; IgG1 E1
Turning to B1, the IC50 in [1] stood at 0.71 nM. In test [2], the half-maximal effective concentration (EC50) worked out at 1 nM. This molecule also had an equilibrium dissociation constant (Kd) in test [3] of around 83 nM.

B2: Fab E1 (m101) (Fab, V domains shown)
VH: QVQLQQSGAEVKKPGSSVKVSCKASGYTFTGYYMHWVRQAPGQGLEWMGGIIPIFGTANYAQKFQGRVTITADKSTSTAYMELSSLRSEDTAVYYCATAPMVCSSTSCYLRGFDYWGQGTLVTVSS
VL: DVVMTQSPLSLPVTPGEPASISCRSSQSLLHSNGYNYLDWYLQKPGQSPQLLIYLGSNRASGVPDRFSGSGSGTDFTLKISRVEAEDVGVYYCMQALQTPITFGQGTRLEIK
notes: Soluble Fab from the phage library, detected with anti-FLAG antibody (FLAG tag); also called clone E1; Fab m101
For the molecule B2, a half-maximal response in test [4] (EC50) required 5 nM.

B3: IgG1 m105 (antibody, V domains shown)
VH: EVQLVQSGAEVKKPGSSVKVSCKASGGTFSSYAISWVRQAPGQGLEWMGGIIPIFGTANYAQKFQGRVTMTRDTSISTAYMELSRLRSDDTAVYYCARELLYCSSTSCGTHGFDIWGQGTMVTVSS
VL: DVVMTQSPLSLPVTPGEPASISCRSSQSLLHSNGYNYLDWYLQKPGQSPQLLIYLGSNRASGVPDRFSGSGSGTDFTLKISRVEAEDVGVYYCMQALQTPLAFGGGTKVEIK
notes: Fully human IgG1 made from Fab E5 (pDR12 vector); also called E5; 105L
Turning to B3, the EC50 in [5] is below 1 nM. In [6], the “IC50 of inhibition of ephrin-A1 mediated EphA4 clusters” value is 4.16 µg/mL. The half-inhibitory concentration (IC50) in test [7] worked out at 0.78 nM; in test [8], 1.81 nM; in test [1], 0.35 nM; in test [9], 22.7 nM; in [11], 0.34 nM. The molecule also registered an equilibrium dissociation constant (Kd) in test [3] of around 8.6 nM. The binding result in [10] is “no binding (tested: 1000 nM (Log [nM] = 3))”.

B4: Fab E5 (m105) (Fab, V domains shown)
VH: EVQLVQSGAEVKKPGSSVKVSCKASGGTFSSYAISWVRQAPGQGLEWMGGIIPIFGTANYAQKFQGRVTMTRDTSISTAYMELSRLRSDDTAVYYCARELLYCSSTSCGTHGFDIWGQGTMVTVSS
VL: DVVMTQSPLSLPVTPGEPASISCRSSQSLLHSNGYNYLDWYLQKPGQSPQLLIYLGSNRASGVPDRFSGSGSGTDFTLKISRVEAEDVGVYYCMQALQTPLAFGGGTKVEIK
notes: Soluble Fab, detected with anti-FLAG antibody; also called clone E5; Fab m105
In turn, B4 yielded a concentration giving a half-maximal response (EC50) in test [4] of 2 nM.

Source of the values: patent publication US20170218075A1 (HONG KONG UNIVERSITY OF SCIENCE AND TECHNOLOGY, published 2017).
